# Experimental data: article PMC12866851, “ACSL5 Regulates Glucose Metabolism and Chemotherapy Sensitivity in Colorectal Cancer Cells under Glutamine Deficiency” (Advanced Science, 2025)
# B1: isocitrate dehydrogenase 2 (IDH2) (enzyme, human (endogenous in HCT116), UniProt P48735 40-452, looked up)
# chain: ADKRIKVAKPVVEMDGDEMTRIIWQFIKEKLILPHVDIQLKYFDLGLPNRDQTDDQVTIDSALATQKYSVAVKCATITPDEARVEEFKLKKMWKSPNGTIRNILGGTVFREPIICKNIPRLVPGWTKPITIGRHAHGDQYKATDFVADRAGTFKMVFTPKDGSGVKEWEVYNFPAGGVGMGMYNTDESISGFAHSCFQYAIQKKWPLYMSTKNTILKAYDGRFKDIFQEIFDKHYKTDFDKNKIWYEHRLIDDMVAQVLKSSGGFVWACKNYDGDVQSDILAQGFGSLGLMTSVLVCPDGKTIEAEAAHGTVTRHYREHQKGRPTSTNPIASIFAWTRGLEHRGKLDGNQDLIRFAQMLEKVCVETVESGAMTKDLAGCIHGLSNVKLNEHFLNTTDFLDTIKSNLDRALGRQ
# notes: IDH2, mitochondrial isocitrate dehydrogenase 2, endogenous in human HCT116 cells; source: endogenous, HCT116 lysate
# Molecular target: the molecule itself
# Test: cross-linking; HCT116 cells (shctrl or shACSL5) treated without or with DSS crosslinker; whole cell lysates, Western blot against IDH2; dimer and monomer of IDH2
protein,measurement,value
B1,stoichiometry N,2
